Measured values reported in patent US8236540B2, “Isolated luciferases and the use thereof” (Bayer Intellectual Property GmbH, priority 2000, dated 2012).

Legend:
LuAL = assay: Coelenterazine derivatives as substrates of LuAL; assay type: biochemical, Metridia longa; conditions: coelenterazine derivatives 10^-4 M
Lu22 = assay: Coelenterazine derivatives as substrates of Lu22; assay type: biochemical, Metridia longa; conditions: coelenterazine derivatives 10^-4 M
Lu164 = assay: Coelenterazine derivatives as substrates of Lu164 (luminescence with CHO-pcDNA3-Lu164 supernatant); assay type: biochemical, Metridia longa; conditions: 10 μl derivative (10^-4 M) + 10 μl supernatant of CHO-pcDNA3-Lu164, 8.7 kV for 30 seconds
Description: In order to identify substrates for Lu164, 10 μl solutions of different coelenterazine derivatives (10^−4 M) were in each case incubated with 10 μl of supernatant from CHO-pcDNA3-Lu164 cell lines and the luminescence was measured. The coelenterazines were obtained from Molecular Probes (USA).

[1] = Luciferase activity (chemiluminescence) of bacterial lysate after adding coelenterazine; assay type: biochemical; conditions: 5 μl E. coli BL21(DE3) lysate (5 mg/ml), pTriplEx2 vectors, coelenterazine 10^-4 M, 9.5 kV for 30 seconds
Description: The bacterial expression took place in the E. coli strain BL21(DE3) as a result of transforming the bacteria with the expression plasmids pTriplEX2-Lu164, pTriplEX2-LuAL and pTriplEX2-Lu22. The transformed bacteria were incubated at 37° C. for 3 hours in LB medium and expression was induced for 4 hours by adding IPTG to a final concentration of 1 mM. The induced bacteria were harvested by centrifugation, resuspended in PBS and disrupted by ultrasonication. Coelenterazine (10^−4 M in methanol) or luciferin (Firefly Luciferin) was added to 5 μl of the lysate (5 mg/ml) and the chemiluminescence was measured.
The measurement, in RLU (relative light units), took place at 9.5 kV for 30 seconds. Values of 230 000, 320 000 and 260 000 RLU were measured in the case of Lu1 64, LuAL and Lu22, respectively. The enzymes were expressed in E. coli BL21(DE3) using the vectors pTriplEx2-Lu164, pTriplEx2-LuAL and pTriplEx2-Lu22.

[2] = Luciferase activity (chemiluminescence) after constitutive eukaryotic expression in transiently transfected CHO cells; assay type: cell-based; conditions: CHO cells transiently transfected with pcDNA3 vectors, 5 μl, coelenterazine 10^-4 M, 9.5 kV for 30 seconds, room temperature
Description: Constitutive eukaryotic expression was affected in CHO cells by transfecting the cells with the expression plasmids pcDNA3-Lu164, pcDNA3-LuAL and pcDNA3-Lu22 in transient experiments. For this, 10 000 cells in DMEM-F12 medium were plated, per well, in 96-well microtiter plates and incubated overnight at 37° C. The transfection was effected using the Fugene 6 kit (Roche) in accordance with the manufacturer's instructions. The transfected cells were incubated overnight at 37° C. in DMEM-F12 medium. The chemiluminescence in the medium (5 ul) and the cell lysate (5 μl) was measured for 30 seconds at 9.5 kV in a luminometer, at room temperature, after adding coelenterazine (10^−4 M in methanol).
Values of 680 000, 670 000 and 510 000 RLU (relative light units) were measured in the case of Lu1 64, LuAL and Lu22, respectively. The expression was effected in CHO cells using the vectors pcDNA3-Lu164, pcDNA3-LuAL and pcDNA3-Lu22.

With `Oc1ccc(Cc2nc3c(Cc4ccccc4)nc(-c4ccc(O)cc4)cn3c2O)cc1` [coelenterazine] the “substrate suitability for LuAL (luminescence)” value (LuAL) was “optimal substrate”, the “substrate suitability for Lu22 (luminescence)” value (Lu22) was “optimal substrate” and the “substrate suitability for Lu164 (luminescence)” value (Lu164) was “optimal substrate”.

B1: Lu22: coelenterazine-dependent secreted luciferase from Metridia longa, amino acid sequence SEQ ID NO: 6 (protein, listed as Metridia longa)
chain: MGVKLIFAVVCVAVAQAATIQENFEDIDLVAIGGSFASDVDANRGGHGGHPGKKMPKEVLMEMEANAKRAGCHRGCLVCLSHIKCTAQMQKFIPGRCHSYAGDKDSAQGGIAGGAIVDIPEIAGFKEMKPMEQFIAQVDLCEDCTTGCLKGLANVHCSDLLKKWLPSRCKTFASKIQSQVDTIKGLAGDR
With B1 the “chemiluminescence, RLU (relative light units)” value [1] was 260 000 RLU and the “chemiluminescence, RLU (relative light units)” value [2] was 510 000 RLU.

B2: Lu164: coelenterazine-dependent secreted luciferase from Metridia longa, amino acid sequence SEQ ID NO: 4 (protein, listed as Metridia longa)
chain: MDIKVVFTLVFSALVQAKSTEFDPNIDIVGLEGKFGITNLETDLFTIWETMEVMIKADIADTDRASNFVATETDANRGKMPGKKLPLAVIMEMEANAFKAGCTRGCLICLSKIKCTAKMKVYIPGRCHDYGGDKKTGQAGIVGAIVDIPEISGFKEMAPMEQFIAQVDRCASCTTGCLKGLANVKCSELLKKWLPDRCASFADKIQKEVHNIKGMAGDR
With B2 the “chemiluminescence, RLU (relative light units)” value [1] was 230 000 RLU and the “chemiluminescence, RLU (relative light units)” value [2] was 680 000 RLU.

B3: LuAL: coelenterazine-dependent secreted luciferase from Metridia longa, amino acid sequence SEQ ID NO: 2 (protein, listed as Metridia longa)
chain: MDMRVIFALVFSSLVQAKSTEFDPNINIVGLEGKFGITNLETDLFTIWETMDVIKSDITDTDRVSNFVATETDANRGKMPGKKLPLAVIMEMEANAFKAGCTRGCLICLSKIKCTAKMKVYIPGRCHDYGGDKKTGQAGIVGAIVDIPEISGFKEMAPMEQFIAQVDLCATCTTGCLKGLANVKCSELLKKWLPGRCASFADKIQKEVHNIKGMAGDR
In the case of B3, the “chemiluminescence, RLU (relative light units)” value [1] is reported as 320 000 RLU and the “chemiluminescence, RLU (relative light units)” value [2] is reported as 670 000 RLU.
